Laboratory results taken from US20220259278A1 (PROGEN, published 2022).

What was measured:
[1] = target: T1, Fc gamma receptor I (UniProt P12314 16-288, limits assumed); test: BLI, fitting view, three repeats
T1 construct: also called FcγRI

[2] = target: T2, Fc gamma receptor IIIa (UniProt P08637 17-208); test: BLI, fitting view, three repeats
T2 construct: also called FcγRIIIa

[3] = target: T3, human CD154 (human, UniProt P29965 113-261, limits assumed); test: BLI (Octet K2), CD154 amine-coupled to AR2G sensor, antibody in solution; average
T3 construct: Coupled to amine reactive (AR2G) biosensors at 5 ug/ml; also called hCD154; CD40L
T3 sequence (looked up): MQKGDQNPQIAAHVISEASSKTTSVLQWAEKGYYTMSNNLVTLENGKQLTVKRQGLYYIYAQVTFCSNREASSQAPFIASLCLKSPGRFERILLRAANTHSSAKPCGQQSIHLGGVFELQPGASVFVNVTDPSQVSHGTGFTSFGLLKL
Description: To this end, the present inventors first attached CD154 protein to 96-well plates using Dip and Read™ Amine Reactive 2nd Generation (AR2G) Reagent Kit (forteBio, Cat No. 18-5092). Specifically, after dispensing 200 μl of DW in a 96-well plate, an amine biosensor included in the kit was inserted and hydrated for 10 minutes. Subsequently, after dispensing 200 μl of DW was additionally to the plate, EDC:NHS was mixed in a 1:1 ratio in a volume corresponding to 1/20 of the required sample, then diluted in DW, and 200 μl was dispensed into the 96-well plate. Subsequently, CD154 protein was diluted to 5 μg/ml in 10 mM acetate solution (pH 6.0), and 200 μl was dispensed into the 96-well plate. Then, 200 μl of 1 M ethanolamine was added to the 96-well plate, and the biosensor plate and the sample plate were inserted into Octet® K2 BLI analyzer and signals were measured. After the measurement was completed, 200 μl of the 1× Kinetics buffer was added to the sample plate, and then a baseline was determined.

T2 sequence (P08637 17-208 limits assumed): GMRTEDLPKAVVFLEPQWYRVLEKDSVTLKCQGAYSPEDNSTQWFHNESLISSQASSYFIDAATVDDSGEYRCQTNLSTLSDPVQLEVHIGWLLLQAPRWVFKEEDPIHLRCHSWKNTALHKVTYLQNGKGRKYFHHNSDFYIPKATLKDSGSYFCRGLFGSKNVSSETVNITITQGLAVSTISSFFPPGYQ
T1 sequence (P12314 16-288 limits assumed): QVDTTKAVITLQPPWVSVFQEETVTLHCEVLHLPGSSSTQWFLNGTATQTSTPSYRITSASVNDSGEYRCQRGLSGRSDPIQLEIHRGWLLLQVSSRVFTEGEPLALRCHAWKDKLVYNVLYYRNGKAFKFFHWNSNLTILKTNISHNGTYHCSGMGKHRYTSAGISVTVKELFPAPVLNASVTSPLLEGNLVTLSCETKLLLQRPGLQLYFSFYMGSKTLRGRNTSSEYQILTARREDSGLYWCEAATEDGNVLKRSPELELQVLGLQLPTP

B1: GLP-1E-Fc fusion protein PG-11 (Fc fusion)
chain: HGEGTFTSDVSSYLEGQAAKEFIAWLVKGGPSSGAPPPSGGGGSGGGGSGGGGSEKEKEEQEERTHTCPPCPSHTQPLGVFLFPPKPKDQLMISRTPEVTCVVVDVSQEDPEVQFNWYVDGVEVHNAKTKPREEQFNSTYRVVSVLTVLHQDWLNGKEYKCKVSNKGLPSSIEKTISKAKGQPREPQVYTLPPSQEEMTKNQVSLTCLVKGFYPSDIAVEWESNGQPENNYKTTPPVLDSDGSFFLYSRLTVDKSRWQEGNVFSCSVLHEALHNHYTQKSLSLSLGK
notes: 6 entered; also called modified Fc region protein; fusion protein containing NTIG
Question: Does B1 bind [1]?
Answer: no binding

Question: Does B1 bind [2]?
Answer: no binding

B2: chimeric anti-CD154 antibody C10M (antibody, V domains shown, not shown: a dimerising Fc or GST)
VH: EVQLQQSGSELVKPGASVKLSCKASGYIFTSYYMYWVKQRPGQGLEWIGEINPSNGDTNFNEKFKSKATLTVDKSSSTAYMQLISLTSEDSAVYYCTRSDGRNDMDSWGQGTTVTVSS
VL: DIQLTQSPASLAVSLGQRATISCRASQRVSSSTYSYMHWYQQKPGQPPKLLIKYASNLESGVPARFSGSGSGTDFTLNIHPVEEEDSATYYCQHSWEIPPTFGGGTKLEIKR
notes: Mouse-derived anti-CD154 Fab with a mutant human IgG1 Fc region; also called anti-CD154 chimeric antibody
Question: Which koff [3] does the source give for B2 here?
Answer: < 1e-07 s⁻¹

Question: What about the kon [3] of the same binder?
Answer: 510000 M⁻¹ s⁻¹

B3: chimeric hybrid antibody PG-400-1 (antibody, V domains shown)
VH: EVQLQQSGSELVKPGASVKLSCKASGYIFTSYYMYWVKQRPGQGLEWIGEINPSNGDTNFNEKFKSKATLTVDKSSSTAYMQLISLTSEDSAVYYCTRSDGRNDMDSWGQGTTVTVSS
VL: DIQLTQSPASLAVSLGQRATISCRASQRVSSSTYSYMHWYQQKPGQPPKLLIKYASNLESGVPARFSGSGSGTDFTLNIHPVEEEDSATYYCQHSWEIPPTFGGGTKLEIKR
Question: With B3 as the binder, how does the koff [3] read?
Answer: < 1e-07 s⁻¹

Question: What about the kon [3] of the same binder?
Answer: 807000 M⁻¹ s⁻¹
